Assay results reported in PMC3556126, “The site-specific integration reaction of Listeria phage A118 integrase, a serine recombinase”.

Tests used:
[1] = molecular target: Listeria phage A118 integrase, N-terminally histidine tagged, full-length (Listeria phage A118); assay: SEC; FPLC Superdex-200 10/300 GL; 20 mM HEPES pH 7.5, 1 M NaCl, 1 mM DTT, 10% glycerol; 0.4 ml/minute; 23°C
A118 integrase (HisInt) [2] = molecular target: T1, A118 integrase (HisInt) (Listeria monocytogenes phage A118, UniProt Q8Y4U8 1-452); assay: EMSA; details: 20 mM HEPES pH 7.5, 100 mM NaCl, 0.1 mg/ml BSA, 5 mM spermidine, 5 mM DTT, 5% glycerol, 50 ug/ml salmon sperm DNA, about 0.1 pmol probe in 10 ul, 30 C 30 min …
T1 sequence: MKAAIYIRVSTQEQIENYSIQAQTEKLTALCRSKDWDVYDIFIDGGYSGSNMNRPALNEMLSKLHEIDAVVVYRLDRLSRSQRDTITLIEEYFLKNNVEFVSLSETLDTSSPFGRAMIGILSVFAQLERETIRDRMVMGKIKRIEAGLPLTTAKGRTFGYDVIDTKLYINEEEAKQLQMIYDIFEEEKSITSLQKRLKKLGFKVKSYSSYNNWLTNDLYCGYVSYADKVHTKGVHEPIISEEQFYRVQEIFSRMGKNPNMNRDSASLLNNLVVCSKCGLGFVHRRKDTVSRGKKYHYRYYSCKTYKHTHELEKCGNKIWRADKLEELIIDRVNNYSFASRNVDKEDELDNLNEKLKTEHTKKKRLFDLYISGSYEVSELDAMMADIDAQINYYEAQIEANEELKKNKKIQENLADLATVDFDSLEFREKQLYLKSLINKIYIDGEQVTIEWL

[3] = molecular target: T2, A118 integrase C-terminal domain (HisInt158-452) (Listeria monocytogenes phage A118) (UniProt Q8Y4U8); assay: EMSA; details: mainly complex I, 20 mM HEPES pH 7.5, 100 mM NaCl, 0.1 mg/ml BSA, 5 mM spermidine, 5 mM DTT, 5% glycerol, 50 ug/ml salmon sperm DNA, about 0.1 pmol probe in 10 ul, 30 C 30 min …
T2 sequence: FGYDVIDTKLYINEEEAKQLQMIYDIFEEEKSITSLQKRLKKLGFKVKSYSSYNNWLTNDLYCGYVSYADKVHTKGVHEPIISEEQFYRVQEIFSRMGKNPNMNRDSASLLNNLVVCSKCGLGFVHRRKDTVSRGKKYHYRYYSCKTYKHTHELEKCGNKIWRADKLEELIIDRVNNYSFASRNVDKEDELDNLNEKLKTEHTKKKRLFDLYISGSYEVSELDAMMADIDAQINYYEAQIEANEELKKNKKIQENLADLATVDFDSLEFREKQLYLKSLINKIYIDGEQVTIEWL

A118 integrase (HisInt) [4] = molecular target: T1, A118 integrase (HisInt); assay: EMSA; 810 nM; 20 mM HEPES pH 7.5, 100 mM NaCl, 0.1 mg/ml BSA, 5 mM spermidine, 5 mM DTT, 5% glycerol, 50 ug/ml salmon sperm DNA, about 0.1 pmol probe in 10 ul, 30 C 30 min; 6% PAGE in 0.5x TBE at room temperature; details: protein: recombinant; tags: N-terminal His (pET15b); chain copies: 2; label: 32P; blunt
[5] = molecular target: T3, A118 integrase C-terminal domain (HisInt158-452) (Listeria monocytogenes phage A118, UniProt Q8Y4U8 158-452); assay: as above; details: protein: recombinant; tags: N-terminal His (pET15b); label: 32P; blunt
T3 sequence: T2 sequence

A118 integrase (HisInt) [6] = molecular target: T1, A118 integrase (HisInt); assay: protease protection; twofold molar excess of DNA; chymotrypsin or proteinase K; 20 mM HEPES pH 7.5, 100 mM NaCl, 0.1 mg/ml BSA, 5 mM spermidine, 5 mM DTT, 5% glycerol, 50 ug/ml salmon sperm DNA, about 0.1 pmol probe in 10 ul, 30 C 30 min; 6% PAGE in 0.5x TBE at room temperature; details: protein: recombinant; tags: N-terminal His (pET15b); chain copies: 2; blunt
A118 integrase (HisInt) [7] = molecular target: T1, A118 integrase (HisInt); assay: EMSA; predominantly dimer; 20 mM HEPES pH 7.5, 100 mM NaCl, 0.1 mg/ml BSA, 5 mM spermidine, 5 mM DTT, 5% glycerol, 50 ug/ml salmon sperm DNA, about 0.1 pmol probe in 10 ul, 30 C 30 min; 6% PAGE in 0.5x TBE at room temperature; details: protein: recombinant; tags: N-terminal His (pET15b); chain copies: 2; label: 32P; blunt
[8] = dimer complex, apparent, panel assignment by order

**Q.** With “Listeria phage A118 integrase, N-terminally histidine tagged, full-length (enzyme)” as the molecule, how does the stoichiometry N [1] read?
**A.** 2

**Q.** For attB 100 bp, which Kd (A118 integrase (HisInt) [2]) is on record?
**A.** 72 nM

**Q.** And the Kd ([3]; binds much less than attP)?
**A.** > 800 nM

**Q.** Which Kd (A118 integrase (HisInt) [2]; [8]) does the source give for attL 100 bp here?
**A.** 75 nM

**Q.** Which Kd (A118 integrase (HisInt) [2]) does the source give for attP 100 bp here?
**A.** 48 nM

**Q.** And the Kd [3]?
**A.** 145 nM

**Q.** Which Kd (A118 integrase (HisInt) [2]; [8]) does the source give for attR 100 bp here?
**A.** 60 nM

B1: attP -oP' half-site (dsDNA)
DNA 1: GCCCGACCAAGTTCGCGCAGGAGGGGAAGAAGAAGAAACGAGAAACTAAA
DNA 2: TTTAGTTTCTCGTTTCTTCTTCTTCCCCTCCTGCGCGAACTTGGTCGGGC
**Q.** Does B1 bind (A118 integrase (HisInt) [4])?
**A.** no binding

**Q.** Does B1 bind [5]?
**A.** no binding

B2: attP 50 bp (dsDNA)
DNA 1: TTTAGTTCCTCGTTTTCTCTCGTTGGAAGAAGAAGAAACGAGAAACTAAA
DNA 2: TTTAGTTTCTCGTTTCTTCTTCTTCCAACGAGAGAAAACGAGGAACTAAA
**Q.** Does B2 bind (A118 integrase (HisInt) [6])?
**A.** binds

B3: attB -oB' half-site (dsDNA)
DNA 1: CCGCGCATAGGAGGAACCCTGGGACGCAAAGAGGGAACTAAACA
DNA 2: TGTTTAGTTCCCTCTTTGCGTCCCAGGGTTCCTCCTATGCGCGG
**Q.** Does B3 bind (A118 integrase (HisInt) [4])?
**A.** no binding

B4: attP Po- half-site (dsDNA)
DNA 1: TTTAGTTCCTCGTTTTCTCTCGTTGGACTCCTCCTCGCTCGTCCCAGCCC
DNA 2: GGGCTGGGACGAGCGAGGAGGAGTCCAACGAGAGAAAACGAGGAACTAAA
**Q.** Which Kd (A118 integrase (HisInt) [7]) does the source give for B4 here?
**A.** ~1000 nM
